Where two headings read alike, the source gives them in different places.

Test [1] addresses human C1q (Quidel, San Diego, CA) (human) (UniProt P02745). Briefly: cell-based or functional assay.
Test [2] has the same target. The test is described as follows: C1q binding ELISA (antibody coated, 2 µg/ml C1q added).
The target of test [3] is CD20 antigen on WIL2-S cells (UniProt P11836). The test is described as follows: flow cytometry on WIL2-S cells expressing CD20.
The target of test [4] is FcγRI α subunit-GST fusion (UniProt P12314). The test is described as follows: ELISA on coated FcγRI α subunit-GST, monomeric IgG at 10 µg/ml.
Sequence of FcγRI α subunit-GST fusion (P12314 16-292): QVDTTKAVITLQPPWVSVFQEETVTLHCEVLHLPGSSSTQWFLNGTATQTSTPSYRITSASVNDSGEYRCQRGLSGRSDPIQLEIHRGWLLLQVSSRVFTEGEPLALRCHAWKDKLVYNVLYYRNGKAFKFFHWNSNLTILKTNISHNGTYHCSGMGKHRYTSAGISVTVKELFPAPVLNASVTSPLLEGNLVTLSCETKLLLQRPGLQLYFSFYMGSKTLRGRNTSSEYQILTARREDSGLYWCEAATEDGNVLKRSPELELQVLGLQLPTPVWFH
For test [5], the target named is FcγRIIa α subunit ECD-6His-GST fusion protein (UniProt P12318). Briefly: ELISA on coated receptor ECD-6His-GST, E27:chimeric IgE:VEGF immune complex.
Sequence of FcγRIIa α subunit ECD-6His-GST fusion protein (P12318 34-217): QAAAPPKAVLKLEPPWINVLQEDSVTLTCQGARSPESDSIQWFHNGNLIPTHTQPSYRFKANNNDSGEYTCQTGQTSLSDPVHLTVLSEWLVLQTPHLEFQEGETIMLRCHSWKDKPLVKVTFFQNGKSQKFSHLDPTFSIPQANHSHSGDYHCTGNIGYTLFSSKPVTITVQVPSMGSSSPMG
The target of test [6] is FcγRIIb α subunit ECD-6His-GST fusion protein (UniProt P31994). The test is described as above.
Sequence of FcγRIIb α subunit ECD-6His-GST fusion protein (P31994 43-217): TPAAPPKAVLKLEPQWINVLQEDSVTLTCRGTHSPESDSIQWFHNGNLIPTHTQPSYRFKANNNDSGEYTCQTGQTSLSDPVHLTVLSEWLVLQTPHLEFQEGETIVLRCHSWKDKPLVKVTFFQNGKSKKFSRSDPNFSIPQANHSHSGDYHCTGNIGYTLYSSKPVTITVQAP
In test [7] the target is FcγRIIIa α subunit ECD-6His-GST fusion protein (UniProt P08637). The description is as above.
Sequence of FcγRIIIa α subunit ECD-6His-GST fusion protein (P08637 17-208): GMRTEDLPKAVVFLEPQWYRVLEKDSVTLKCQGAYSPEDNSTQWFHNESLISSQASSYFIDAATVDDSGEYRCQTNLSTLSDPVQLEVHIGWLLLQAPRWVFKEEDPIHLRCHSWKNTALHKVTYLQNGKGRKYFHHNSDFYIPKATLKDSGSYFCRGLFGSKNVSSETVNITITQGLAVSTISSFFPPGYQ
The target in test [8] is human C1q (Quidel, San Diego, CA) (human) (UniProt P02745). The test is described as follows: C1q binding ELISA (antibody coated, 2 µg/ml C1q added). This is another data set of the same source.
Sequence of human C1q (Quidel, San Diego, CA) (human) (P02745 23-245 limits assumed, chain 1 of 3): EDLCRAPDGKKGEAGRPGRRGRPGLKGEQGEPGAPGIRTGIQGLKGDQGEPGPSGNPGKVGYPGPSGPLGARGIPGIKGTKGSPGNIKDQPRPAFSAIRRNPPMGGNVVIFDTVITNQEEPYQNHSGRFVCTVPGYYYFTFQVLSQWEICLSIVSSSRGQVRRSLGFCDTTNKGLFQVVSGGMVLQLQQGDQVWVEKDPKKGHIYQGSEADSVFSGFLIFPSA
Sequence of human C1q (Quidel, San Diego, CA) (human) (P02746 28-253 limits assumed, chain 2 of 3, further chain): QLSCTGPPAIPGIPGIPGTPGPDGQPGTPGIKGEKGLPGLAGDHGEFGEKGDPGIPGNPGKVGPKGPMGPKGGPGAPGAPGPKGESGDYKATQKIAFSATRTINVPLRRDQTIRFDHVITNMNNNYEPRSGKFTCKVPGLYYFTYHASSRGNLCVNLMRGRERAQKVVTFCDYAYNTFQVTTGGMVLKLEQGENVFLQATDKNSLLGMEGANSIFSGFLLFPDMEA
Sequence of human C1q (Quidel, San Diego, CA) (human) (P02747 29-245 limits assumed, chain 3 of 3, further chain): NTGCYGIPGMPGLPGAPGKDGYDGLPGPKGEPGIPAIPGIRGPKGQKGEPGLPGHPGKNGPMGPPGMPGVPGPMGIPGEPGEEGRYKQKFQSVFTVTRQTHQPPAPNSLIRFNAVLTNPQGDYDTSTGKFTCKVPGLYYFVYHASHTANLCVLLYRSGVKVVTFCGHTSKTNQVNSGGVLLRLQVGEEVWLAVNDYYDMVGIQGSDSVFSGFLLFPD
Test [9] shares this target. The test is described as follows: C1q binding ELISA (antibody coated up to 100 µg/ml, 2 µg/ml C1q added).

Sequence of CD20 antigen on WIL2-S cells (P11836 whole entry, the tested form may be a part): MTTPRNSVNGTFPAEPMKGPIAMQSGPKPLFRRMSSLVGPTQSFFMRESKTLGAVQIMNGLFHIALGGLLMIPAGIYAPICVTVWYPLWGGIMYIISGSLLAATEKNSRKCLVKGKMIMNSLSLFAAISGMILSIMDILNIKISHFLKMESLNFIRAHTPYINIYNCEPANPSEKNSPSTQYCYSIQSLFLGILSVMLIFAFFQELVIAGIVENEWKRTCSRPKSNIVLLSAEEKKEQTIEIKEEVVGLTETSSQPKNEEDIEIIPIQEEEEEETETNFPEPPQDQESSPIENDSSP

In test [1], “C2B8 double mutant K326A-E333A (antibody)” displayed a CDC compared to wild type C2B8 of 2 fold. In [2], this substance showed a fold better at binding human C1q than wild type C2B8 of 3 fold. In test [2], C2B8 mutant E333G (antibody) returned an EC50 of 1.14 µg/mL. On to C2B8 mutant K320A (antibody), for which the CD20 binding (EC50), percentage of the wild type (% of wild type) in [3] was found to be 102. The substance further displayed a CDC (% of wild type) in test [1] of 108.

C2B8 mutant E333V (antibody) came in with a 50% effective concentration (EC50) in test [2] of 1.18 µg/mL. On to E27 anti-IgE antibody mutant E318A, for which the binding, percentage of the wild type (% of wild type) in test [4] was found to be 93; in test [5], 113; in test [6], 106; in [7], 104. For C2B8 mutant K326E (antibody), in [8], the fold increase in binding to C1q compared to wild type stood at 2 fold. In addition, the concentration for a half-maximal effect (EC50) in test [2] amounted to 1.08 µg/mL.

As to E27 anti-IgE antibody mutant K322A, the binding, percentage of the wild type (% of wild type) in test [5] is 109; in test [6], 101. In test [1], “C2B8 double mutant K326W-E333S (antibody)” came in with a CDC compared to wild type C2B8 of 3 fold. For C2B8 mutant K326V (antibody), the concentration for a half-maximal effect (EC50) in test [2] stood at 1.3 µg/mL. In the case of C2B8 mutant E333S (antibody), in [2], the EC50 was found to be 0.81 µg/mL and the fold increase in binding to C1q compared to wild type stood at 2 fold. In the case of C2B8 mutant P329A (antibody), the CD20 binding (EC50), percentage of the wild type (% of wild type) in [3] turned out to be 112. In test [8], C2B8 mutant K326M (antibody) came in with a fold increase in binding to C1q compared to wild type of 2 fold. The same substance gave an EC50 in [2] of 0.67 µg/mL. Regarding C2B8 mutant K334A (antibody), the EC50 in test [2] was 1.07 µg/mL.

On to C2B8 mutant E333D (antibody), for which, in test [2], the EC50 was found to be 1.22 µg/mL. Consider C2B8 mutant K326A (antibody), for which, in test [2], the EC50 is 1.03 µg/mL and the increase in binding to C1q is 30%. Take C2B8 mutant K326W (antibody): the fold increase in binding to C1q compared to wild type in test [8] was found to be 2 fold; in test [2], 5 fold. In test [2], this substance came in with an EC50 of 0.47 µg/mL. In test [2], “C2B8 mutant with A327 of the human IgG1 constant region changed to glycine (antibody)” returned an increase in C1q binding of 50%.

Take E27 anti-IgE antibody mutant K320A: the binding, percentage of the wild type (% of wild type) is 102 in test [4], 83 in test [6] and 72 in [7]. Take C2B8 mutant E318A (antibody): in [3], the CD20 binding (EC50), percentage of the wild type (% of wild type) is 89. The same substance showed a CDC (% of wild type) in [1] of 108. The substance also showed a decrease in binding to C1q compared to wild type C2B8 in test [2] of 30%. In test [8], C2B8 mutant K326D (antibody) registered a fold increase in binding to C1q compared to wild type of 2 fold. The substance also gave an EC50 in test [2] of 0.76 µg/mL. As to C2B8 mutant E333A (antibody), in test [2], the concentration giving a half-maximal response (EC50) turned out to be 0.98 µg/mL and the increase in binding to C1q was found to be 30%. Turning to E27 anti-IgE antibody mutant P329A, the results for the binding, percentage of the wild type (% of wild type) in test [4] and in test [7] were 104 and 85, respectively. As to E27 anti-IgE antibody mutant P331A, the binding, percentage of the wild type (% of wild type) in test [4] was determined as 74; in test [5] it was 86; in [6] it was 58; in test [7] it was 73. For the substance C2B8 mutant P331A (antibody), the CD20 binding (EC50), percentage of the wild type (% of wild type) in test [3] was determined as 103. In addition, in test [9], the fold lower than wild type C2B8 in binding to C1q was found to be 60 fold. Take C2B8 mutant E333Q (antibody): the 50% effective concentration (EC50) in [2] was 1.52 µg/mL. Consider “C2B8 double mutant K326M-E333S (antibody)”, for which the CDC compared to wild type C2B8 in test [1] was 2 fold. The same substance registered a fold better at binding human C1q than wild type C2B8 in [2] of 3 fold. On to C2B8 mutant K326G (antibody), for which the half-maximal effective concentration (EC50) in [2] worked out at 0.95 µg/mL.

Values taken from patent publication EP1746107B1.
